Earlier results on one substance are cited in PMC5319408.

The data set concerns the target cytochrome P450cam (CYP101, oxidized) (Pseudomonas putida) (UniProt P00183).

pKd: −log10 of the molar value.

Sequence of UniProt P00183 (P00183 2-415): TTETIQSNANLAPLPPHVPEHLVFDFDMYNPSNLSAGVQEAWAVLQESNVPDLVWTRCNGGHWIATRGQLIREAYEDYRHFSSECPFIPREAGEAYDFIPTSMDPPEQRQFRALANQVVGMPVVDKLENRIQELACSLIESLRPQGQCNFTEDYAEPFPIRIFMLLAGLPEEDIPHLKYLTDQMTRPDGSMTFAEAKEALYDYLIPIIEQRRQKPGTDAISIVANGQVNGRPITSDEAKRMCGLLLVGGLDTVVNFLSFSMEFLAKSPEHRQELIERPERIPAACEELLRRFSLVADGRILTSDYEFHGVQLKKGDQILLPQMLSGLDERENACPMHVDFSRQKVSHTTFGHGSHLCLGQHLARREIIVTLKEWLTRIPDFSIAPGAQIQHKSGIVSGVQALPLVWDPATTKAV

With “putidaredoxin (oxidized) (from UniProt P00259)”, the pKd was 4.77.
